Source: the supplement of paper PMC9170038

Test system: MS2 coat protein
Experiment: apparent KD of MS2 coat protein; designed switch direction (-1 OFF switch, 1 ON switch): -1; higher = weaker reporter binding
Procedure, shortened: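 Designed RNA switches sharing common flanks were transcribed on Illumina chips by stalled E. coli RNA polymerase. They were titrated with SNAP-549-labelled MS2 coat protein, from 0.7 or 1.5 nM doubling to 3 µM, in Tris-HCl pH 7.5 buffer with KCl, MgCl2, BSA, DTT, tRNA and Tween-20. Titrations ran without input, with 200 uM small-molecule ligand, or with an oligonucleotide input. The apparent KD of each design is the median over its clusters, after curve-fitting of normalised cluster fluorescence.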

[1] = Eterna round: R95, input ligand: microRNA oligo, concentration not stated
[2] = Eterna round: R95, input ligand: FMN 200 uM
[3] = Eterna round: R95, input ligand: none
[4] = input ligand: microRNA oligo, concentration not stated

## AGCCUACAUGAGGAUCACCCAUGUCAGGAUAUCUCGCGGCGCGUCAAGUUCACGCCGCAGAGAAGGGACUCGGG [Ceusxeatis] (puzzle: Exclusion 1)
[1]
  apparent KD of MS2 coat protein: 37.6 nM

## GUGAGUAGUCAGGAUAUGCUGUACAAAAGUACAGCAGAAGGGAUUACAUGAGGAUCACCCAUGUGUACUUCAUG [Omei Ex6 B10] (Eterna round: R97, puzzle: Exclusion 6)
Input ligand: FMN 200 uM
  apparent KD of MS2 coat protein: 940 nM
Input ligand: none
  apparent KD of MS2 coat protein: 322 nM

## UGUACGAUGCGUGCUGACAUGCGUCGUGCAGCAGGUGAUACAUGAGGAUCACCCAUGUCCUCAUUUGCUCGUCUUAU [Mat - Sensor v3 - Turn-off var 2 - D23] (puzzle: Sensor v3, turn-off variant 2)
[2]
  apparent KD of MS2 coat protein: 53.5 nM
[1]
  apparent KD of MS2 coat protein: 218 nM
[3]
  apparent KD of MS2 coat protein: 55.6 nM

## AAAUACAAGCAAAGAUCCUACAUGAGGAUCACCCAUGUGCUCGUCUUGUAAAGUACUAUCACGAAAGUGAUAGUACA [Sensor 3, v1 - 16] (puzzle: Sensor v3, turn-off variant 1)
[2]
  apparent KD of MS2 coat protein: 51.9 nM
[1]
  apparent KD of MS2 coat protein: 27.5 nM
[3]
  apparent KD of MS2 coat protein: 70.2 nM

## AAUAACAGAGGAUAUACUGUUUUAUGUGUUUGUUGUUUUGAACAUGAGGAUCACCCAUGUAGAAGGCUGAUUGA [JMF 79] (puzzle: Exclusion 2)
[1]
  apparent KD of MS2 coat protein: 38.7 nM

## GCCCGGGCAGGAUAUACGUGGCCCGGGUAACCGGGCCUCAGACAUGAGGAUCACCCAUGUAGAAGGGCCCGGGC [-44, -43.8 kcal, A 22%] (Eterna round: R97, puzzle: Exclusion 2)
Input ligand: FMN 200 uM
  apparent KD of MS2 coat protein: 18.1 nM
Input ligand: none
  apparent KD of MS2 coat protein: 18.3 nM

## UUAAUGUGAGGAUAUCAGGUGUGAUAGAGUAAUGGUAAAUCUGAGAAGGCACAUGAGGAUCACCCAUGUUCUUC [Mat - Exclusion 4 - Mod of JL - D58] (puzzle: Exclusion 4)
[1]
  apparent KD of MS2 coat protein: 21.5 nM

## GCACGGAGUGUAGGAUAUUAGUGCGAUUAGCACUGAGAAGGACAUGAGGAUCACCCAUGUUCCUCGAUAAAAUACCUUCCGUGC [Eli exng1 - 041] (Eterna round: R96, puzzle: Exclusion NG 1)
Input ligand: FMN 200 uM
  apparent KD of MS2 coat protein: 13.2 nM
[4]
  apparent KD of MS2 coat protein: 7.59 nM
Input ligand: none
  apparent KD of MS2 coat protein: 11.8 nM

## UAUAAUCGAGGAUAUACAUGAGGAUCACCCAUGUGUUGCCGCGUGAUGUGUUUGUCAGGUAGAAGGCGAUUAUA [Exclusion 3 - Mod of Jieux's Gilly Gone Silly 23 v.9] (puzzle: Exclusion 3)
[1]
  apparent KD of MS2 coat protein: 153 nM

## CUCAGGUGAGGAUAUGCUUAAGGAUCGGUACACCGACACCUGUAGAAGGCACAUGAGGAUCACCCAUGUUAGGC [Eternabot (L1) Solution 68] (Eterna round: R97, puzzle: Exclusion 4)
Input ligand: FMN 200 uM
  apparent KD of MS2 coat protein: 30.1 nM
Input ligand: none
  apparent KD of MS2 coat protein: 27.9 nM

## UCUUCACAUGAGGAUCACCCAUGUGAGGAUAUGGUUUCGCUGGCCGUAGCCAGUGGAACCAGAAGGCGCAUGAU [Mat - Exclusion 1 - JL Mod - D7] (Eterna round: R97, puzzle: Exclusion 1)
Input ligand: FMN 200 uM
  apparent KD of MS2 coat protein: 21.5 nM
Input ligand: none
  apparent KD of MS2 coat protein: 26.1 nM

## AUGCCCUGAGGAUAUCUCAUCCCGCACAUGAGGAUCACCCAUGUUCUUCUCUGGGUUUCGAGAGAAGGCAGGCCUA [Armus3] (Eterna round: R97, puzzle: Exclusion 5)
Input ligand: FMN 200 uM
  apparent KD of MS2 coat protein: 53.6 nM
Input ligand: none
  apparent KD of MS2 coat protein: 118 nM

## CUAUCUUGCAAGGAUAUGCAAUUUAUUAUUUAUGCAGAAGGUGCUACAUGAGGAUCACCCAUGUUUCUGGGUUU [JR_E6_Sub046] (puzzle: Exclusion 6)
[1]
  apparent KD of MS2 coat protein: 117 nM

## UUUUAACAUGAGGAUCACCCAUGUGAGGAUAUCGAAAUUUAUAUUUAUAUUAAUAUUUCGAGAAGGCACAUUUU [JMF 81] (puzzle: Exclusion 1)
[1]
  apparent KD of MS2 coat protein: 176 nM

## UAUAUAUAGUAAGGAUAUGUAUUUAUUUUAUAAACAGAAGGUACUGACAUGAGGAUCACCCAUGUUUUAGUGUGGGCAUGUAGA [JMF's solution 4] (Eterna round: R96, puzzle: Exclusion NG 1)
[4]
  apparent KD of MS2 coat protein: 67 nM

## GCUUGCUUUUUGGUUUUCAACAUGAGGAUCACCCAUGUUCGUCUUGUGCUCGGGCUUGGGCGGUGUCCGGGUUUGGG [A 9%, less GC] (Eterna round: R97, puzzle: Sensor, turn-off variant 1)
Input ligand: FMN 200 uM
  apparent KD of MS2 coat protein: 55.8 nM
Input ligand: none
  apparent KD of MS2 coat protein: 60.6 nM

## UGCGAAGAGUGAGGAUAUGUGCGACAAAGUUGCACAGAAGGCACAUGAGGAUCACCCAUGUGAGCUAGGUCGAAAGACCUAGCG [Omei Exc(NG)1 Av7] (Eterna round: R96, puzzle: Exclusion NG 1)
Input ligand: FMN 200 uM
  apparent KD of MS2 coat protein: 43.4 nM
[4]
  apparent KD of MS2 coat protein: 17.3 nM
Input ligand: none
  apparent KD of MS2 coat protein: 24.8 nM

## CUUUUUGUCGAGGAUAUGCACCAGCUCACUGACGCAGAAGGCGACACAUGAGGAUCACCCAUGUCAGUUCGCGU [salish99_ex6_r004_433] (Eterna round: R97, puzzle: Exclusion 6)
Input ligand: FMN 200 uM
  apparent KD of MS2 coat protein: 35.3 nM
Input ligand: none
  apparent KD of MS2 coat protein: 20 nM

## GCGGAUUAUGUAGGAUAUCGGUCAGUUUCUGAUCGAGAAGGACAUGAGGAUCACCCAUGUAAAUUCCUCGCUUUGUGAGGCCGC [JL ENG1 3.64] (Eterna round: R96, puzzle: Exclusion NG 1)
Input ligand: FMN 200 uM
  apparent KD of MS2 coat protein: 31.5 nM
[4]
  apparent KD of MS2 coat protein: 15.6 nM
Input ligand: none
  apparent KD of MS2 coat protein: 17.8 nM

## UCCUCACCCAAGGAUAUCUGAGUCGGAACUAGCAGAGAAGGUGGCACAUGAGGAUCACCCAUGUAGACCAAUGC [Eternabot (L2) Solution 9] (Eterna round: R97, puzzle: Exclusion 6)
Input ligand: FMN 200 uM
  apparent KD of MS2 coat protein: 7.87 nM
Input ligand: none
  apparent KD of MS2 coat protein: 7.73 nM

## GCAGCUGCUCUAGGAUAUAUUUUAGCACAUGAGGAUCACCCAUGUGGGACCACAACAGCGCAAGAAUAGAAGGAGACAGCAGUA [Eternabot solution 32] (Eterna round: R96, puzzle: Exclusion NG 2)
Input ligand: FMN 200 uM
  apparent KD of MS2 coat protein: 506 nM
[4]
  apparent KD of MS2 coat protein: 125 nM
Input ligand: none
  apparent KD of MS2 coat protein: 129 nM

## CAAAUCUGAGGAUAUCGAUAUUUGUACAUGAGGAUCACCCAUGUCCUAUUUAUUAUAUUUCGAGAAGGCAGUGUAU [JR_E5_Sub094] (puzzle: Exclusion 5)
[1]
  apparent KD of MS2 coat protein: 19.2 nM

## GGUGGACAUGAGGAUCACCCAUGUGAGGAUAUCGGCUAUCUUGUCGCUGUCGGUUGCUCGAGAAGGCACAUUGU [Exclusion 1 V95] (puzzle: Exclusion 1)
[1]
  apparent KD of MS2 coat protein: 69.2 nM

## CCGGAAUUGAAGGAUAUAGGAGUCGAUAGACACCUAGAAGGUCAGACAUGAGGAUCACCCAUGUGUCCUACCGG [Fiskers Ex 6 - 86] (puzzle: Exclusion 6)
[2]
  apparent KD of MS2 coat protein: 27.4 nM
[1]
  apparent KD of MS2 coat protein: 21 nM
[3]
  apparent KD of MS2 coat protein: 17.4 nM

## UAUCAUCAUGUAGGAUAUGCGUGGCGAAGCUAUGCAGAAGGACAUGAGGAUCACCCAUGUUCUUGCGUCUGCGUACAGAUGCAA [Mat - Exclusion NG 1 - Mod of JL - D71] (Eterna round: R96, puzzle: Exclusion NG 1)
Input ligand: FMN 200 uM
  apparent KD of MS2 coat protein: 218 nM
[4]
  apparent KD of MS2 coat protein: 38 nM
Input ligand: none
  apparent KD of MS2 coat protein: 66.7 nM

## GAAAAGGUAGGAUAUACGAAAAAAAAGGGUAGAAGAAAAACACAUGAGGAUCACCCAUGUAGAAGGACCAAAAG [salish99_ex2_r3_022] (puzzle: Exclusion 2)
[2]
  apparent KD of MS2 coat protein: 107 nM
[1]
  apparent KD of MS2 coat protein: 18.6 nM
[3]
  apparent KD of MS2 coat protein: 23.5 nM

## AAGAAACGAGGAUAUACAGUUGAGUGAGAGAGGGAAGUGUUACAUGAGGAUCACCCAUGUAGAAGGCGUGAGAG [JR_Exclu2_Sub088] (puzzle: Exclusion 2)
[2]
  apparent KD of MS2 coat protein: 32.9 nM
[1]
  apparent KD of MS2 coat protein: 31.4 nM
[3]
  apparent KD of MS2 coat protein: 33.6 nM

## GAUUAUGCGAGCUUUAGGGACAUGAGGAUCACCCAUGUUCGUCUUAUUGGUCUGGAUGCGCUAACAUACCUAAAUCU [JMF 46] (puzzle: Sensor v3, turn-off variant 1)
[2]
  apparent KD of MS2 coat protein: 22.4 nM
[1]
  apparent KD of MS2 coat protein: 31.7 nM
[3]
  apparent KD of MS2 coat protein: 22.6 nM

## UCCUUACAUGAGGAUCACCCAUGUGAGGAUAUGAGGGUUGAUUUAAAUGGGUUGAUUUUCAGAAGGCACAUGAA [JR_Ex1_Sub062] (Eterna round: R97, puzzle: Exclusion 1)
Input ligand: FMN 200 uM
  apparent KD of MS2 coat protein: 46.2 nM
Input ligand: none
  apparent KD of MS2 coat protein: 50.9 nM

## GCACGAAGUGUAGGAUAUCUGUGCGAUUAGCUCAGAGAAGGACACAUGAGGAUCACCCAUGUGUUUCACGGAAACGAAACGUGC [Eli exng1 - 054] (Eterna round: R96, puzzle: Exclusion NG 1)
Input ligand: FMN 200 uM
  apparent KD of MS2 coat protein: 10.7 nM
[4]
  apparent KD of MS2 coat protein: 9.54 nM
Input ligand: none
  apparent KD of MS2 coat protein: 16.2 nM

## GGGCUCGGUGUGAGGAUAUGCUCGGGUAAACUCGGGCAGAAGGCACAUGAGGAUCACCCAUGUAAGUCGGGCUC [-28.5, -27.4 kcal, A 23%, 4bis-4] (Eterna round: R97, puzzle: Brourd's mod of Exclusion 4)
Input ligand: FMN 200 uM
  apparent KD of MS2 coat protein: 18.6 nM
Input ligand: none
  apparent KD of MS2 coat protein: 18 nM

## GACUGAACGUGGUCUGGUUACAUGAGGAUCACCCAUGUAGGUCUAAGAACAUGUCUUUUGUACGCUCGUCUUAUAUA [JR_SV3TOV1_Sub066] (puzzle: Sensor v3, turn-off variant 1)
[2]
  apparent KD of MS2 coat protein: 16.7 nM
[1]
  apparent KD of MS2 coat protein: 38.1 nM
[3]
  apparent KD of MS2 coat protein: 15 nM

## AGAUGUAGAUACCGAUCCUACAUGAGGAUCACCCAUGUAGCUAGACGUGCGGGCGGCGCUCGUCGGACUACCAGUAG [salish99_TOv1_r3_095] (puzzle: Sensor v3, turn-off variant 1)
[2]
  apparent KD of MS2 coat protein: 163 nM
[1]
  apparent KD of MS2 coat protein: 155 nM
[3]
  apparent KD of MS2 coat protein: 232 nM

## AGUGUGUGGCAGGAUAUUCUGUUGGUUCGGACAGAAGAAGGGUCUACAUGAGGAUCACCCAUGUAAGCGGUUGA [Ex6 #34] (Eterna round: R97, puzzle: Exclusion 6)
Input ligand: FMN 200 uM
  apparent KD of MS2 coat protein: 173 nM
Input ligand: none
  apparent KD of MS2 coat protein: 264 nM

## GGAAAGUGAGGAUAUGGUAAUUUAAUUAUUAAUUAAUUAAUCCAGAAGGCACAUGAGGAUCACCCAUGUAAAUG [Mat - Exclusion 4 - D91] (puzzle: Exclusion 4)
[1]
  apparent KD of MS2 coat protein: 30 nM
